According to patent US20230312739A1 (BIOTHEUS, published 2023):
Residue numbers refer to the chain shown, from its start.

How the values were obtained:
[1] = target: T1, CD73 on cynomolgus macaques CD3+CD8+ T cells (cynomolgus macaques, UniProt A0A2K5V5U7 27-549); assay: flow cytometry on cynomolgus macaque PBMC, CD3+CD8+ T cells, donor 1300M
T1 construct: whole, on cells; also called cynomolgus macaques T cells; cynomolgus macaques PBMC
T1 sequence: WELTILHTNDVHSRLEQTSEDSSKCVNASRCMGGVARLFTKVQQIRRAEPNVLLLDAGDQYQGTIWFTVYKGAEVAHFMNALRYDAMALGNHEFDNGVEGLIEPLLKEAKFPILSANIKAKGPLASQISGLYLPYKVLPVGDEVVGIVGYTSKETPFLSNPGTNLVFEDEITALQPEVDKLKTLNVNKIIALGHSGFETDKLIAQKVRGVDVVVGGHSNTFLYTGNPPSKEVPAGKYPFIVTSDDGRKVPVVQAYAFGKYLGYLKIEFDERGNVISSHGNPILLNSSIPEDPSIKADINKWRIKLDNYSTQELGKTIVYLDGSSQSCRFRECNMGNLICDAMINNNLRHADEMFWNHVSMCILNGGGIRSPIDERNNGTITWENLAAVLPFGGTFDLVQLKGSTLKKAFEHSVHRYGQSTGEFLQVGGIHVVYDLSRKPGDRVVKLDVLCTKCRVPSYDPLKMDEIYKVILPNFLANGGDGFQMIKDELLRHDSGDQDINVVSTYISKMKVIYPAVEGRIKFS
Description: Monkey blood samples from two donors (1132F and 1300M) were obtained from Medicilon. Peripheral blood mononuclear cells (PBMCs) were isolated using a Ficoll density gradient centrifugation system. The PBMCs were incubated with the antibody to be tested, then the antibodies bound on the cells were stained with fluorochrome-labeled secondary antibodies (DyLight488 goat anti-mouse IgG, Abcam Cat. No. ab97015; DyLight488 goat anti-human IgG, Abcam Cat. No. ab97003), and the fluorochrome-labeled antibodies against CD3+ and CD8+ were used to recognize T cells. Together with the unstained control samples and the fluorescence compensation control samples, all the samples were run on a flow cytometer to detect the binding of the antibodies to cynomolgus macaques T cells.

[2] = target: T2, human CD73 on the cell surface (tumor cells endogenously expressing human CD73; CHOS-human CD73) (human, UniProt P21589 27-549); assay: full-field cell scanning analyzer (Celigo), percent fluorescent cells, A375 cells endogenously expressing human CD73
T2 construct: The endogenous CD73 of the human tumor lines (MDA-MB-231, Calu6, SK-ME-S, H2030, SKLU1, BT549, A375, HCC44) is treated as the same protein
T2 sequence: T1 sequence with T199M, A350T, I466V
Description: (§1) Experimental method: 10,000 cells were plated on a flat-bottom 96-well plate with 100 μL DMEM+10% FBS/well, cultured overnight so that the cells adhered to the well, and the supernatant was discarded on the next day. Serial 3-fold dilutions of antibody for 8 points were performed by diluting ⅓ of the total volume (100 μL) in 200 μL DMEM. 100 μL of the diluted antibody was added to each well of the cell plate (the supernatants of fused clones or subclones were used for screening), 100 μL of DMEM was added to the corresponding negative control well, and incubation was performed at room temperature for 1 hour. After the supernatant was discarded, 100 μL of secondary antibody (DyLight488 goat anti-mouse IgG (Abcam, Cat. No. ab97015)) was added to each well at a concentration of 5 μg/mL (diluted in DMEM), and incubation was performed for 0.5 hours at room temperature. After staining, the supernatant was discarded, followed by washing once with PBS+2% FBS, then 100 μL of PBS+2% FBS was added to each well, and then reading was performed on analyzer. A full-field cell scanning analyzer (Nexcelom Company, model Celigo® Image Cytometer) was used to measure the reading of the experimental plate. […] The binding effect of the anti-CD73 antibody to the CD73-expressing cell line was determined according to the percentage. […]

murine CD73 on 4T1 cells = target: T3, murine CD73 on 4T1 cells (murine, UniProt Q61503 29-551); assay: cell binding on adherent 4T1 cells, DyLight488 goat anti-mouse IgG, full-field cell scanning analyzer (Celigo), % fluorescent cells
T3 construct: whole, on cells; also called 4T1 (endogenously expressing murine CD73)
T3 sequence (looked up): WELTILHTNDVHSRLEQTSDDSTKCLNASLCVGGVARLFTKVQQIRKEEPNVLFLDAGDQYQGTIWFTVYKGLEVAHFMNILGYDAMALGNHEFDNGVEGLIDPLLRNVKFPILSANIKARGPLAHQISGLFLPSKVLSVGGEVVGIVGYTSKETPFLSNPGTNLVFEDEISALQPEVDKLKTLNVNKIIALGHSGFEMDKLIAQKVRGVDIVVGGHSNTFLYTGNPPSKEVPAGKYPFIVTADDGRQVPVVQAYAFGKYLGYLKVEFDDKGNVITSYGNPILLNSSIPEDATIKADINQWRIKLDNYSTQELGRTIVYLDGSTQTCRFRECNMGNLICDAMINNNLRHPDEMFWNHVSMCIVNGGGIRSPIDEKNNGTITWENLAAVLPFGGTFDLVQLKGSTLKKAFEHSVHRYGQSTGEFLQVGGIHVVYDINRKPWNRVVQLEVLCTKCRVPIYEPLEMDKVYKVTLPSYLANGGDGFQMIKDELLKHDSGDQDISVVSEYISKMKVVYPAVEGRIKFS
Description: as §1

B1: murine antibody 13D12 (antibody, V domains shown)
VH: DVKLQESGPAMVKPSQSLSLTCTVTGYSITSGYDWHWIRLFPGNKLEWMGYISYSGYTDYSPSLKSRISITHDTSKNHFFLKLHSVTTEDTATYYCTRGDHSYAMDYWGQGTSVTVS
VL: DIVMTQSHKFMSTSVGDRVSITCKASQAVGTAVAWYQQKPGQSPKLLIYWASSRHTGVPDRFTGSRSGTDFTLTISSVQSEDLADYFCQQYSSYPLTFGGGTNLEIK
notes: Mouse monoclonal antibody purified from hybridoma supernatant; also called mouse monoclonal antibody 13D12
With B1 the “MFI FC (fold change of mean fluorescence intensity)” value [1] was 2.8 fold, the EC50 [2] was 2.43 µg/mL and the binding result (murine CD73 on 4T1 cells) was “no binding”.
